One data set deals with T1, SOX2 (Homo sapiens, UniProt P48431).
T1 construct: endogenous in cells; host or cells: nuclear extract of GSC7 and GSC328 (patient-derived glioblastoma stem cell lines)
Briefly: Biotinylated enhancer pull down from nuclear extract, western blot and mass spectrometry. The data set is classed as binding. The following applies: for SOX2 enrichment (mass spectrometry): normalised to random sequence 599. The protocol:
The oligo was PCR-amplified using biotinylated primers. The PCR product was then SPRI purified to remove biotinylated primer dimers. These dsDNA fragments were incubated with nuclear extract from GSC7 and GSC328. They were then bound to streptavidin magnetic beads, washed three times and the frozen beads were sent for mass spectrometry analysis.
All the buffers were prepared the day before, passed through a […] filter (except the dialysis buffer) and left at 4° C. overnight. DTT and protease inhibitors were added just before use. The cells were scraped on the media and collected on 50 ml falcons, which were spun at 1350 rcf 5 minutes at 4° C. The pellet was resuspended in 50 ml of ice cold PBS, an aliquot was taken for cell counting, and spun again spun at 1350 rcf 5 minutes at 4° C. The pellet was then resuspended in 5 ml per 40 million cells of ice cold buffer A (10 mM HEPES pH 7.9, 1.5 mM MgCl2, 10 mM KCl, 0.5 mM DTT, protease inhibitors (Complete, Roche, 11697498001)) and incubated on ice for 10 min. The cell suspension was transferred to a glass Dounce homogenizer and dounced 40 times on ice. The cell suspension was transferred to a falcon and centrifuged at 1350 rcf for 10 min at 4° C. The supernatant was discarded (cytosolic extract) and the pellet resuspended in 100 μl per 10 million cells in ice cold buffer B (20 mM HEPES pH 7.9, 5% glycerol, 1 M NaCl, 1.5 mM MgCl2, 0.2 mM EDTA pH 8.0, 0.5 mM DTT, protease inhibitors (Complete, Roche, 11697498001)). The suspension was rotated for 30 minutes at 4° C. and transferred into a dialysis membrane (SnakeSkin, Thermo Scientific, Cat 68100). Dialysis was carried out in 500 ml of dialysis buffer (20 mM HEPES pH 7.9, 5% glycerol, 100 mM KCl, 0.83 mM EDTA pH 8.0, 1.66 mM DTT, protease inhibitors (Complete, Roche, 11697498001)) for two hours at 4° C. with rotation. Dialysis buffer was changed (500 ml) and the dialysis was continued overnight at 4° C. […] The supernatant was collected into new 1.5 ml tubes and quantified (Pierce BCA Protein Assay Kit, Thermo Scientific, Cat 23225). […]
For orientation: In western blotting, separated proteins are transferred to a membrane and probed.

Another data set concerns the target T2, SOX9 (Homo sapiens, UniProt P48436).
T2 construct: These dsDNA fragments were incubated with nuclear extract from GSC7 and GSC328; endogenous in cells; host or cells: nuclear extract of GSC7 and/or GSC328 (patient-derived glioblastoma stem cell lines)
T2 sequence (P48436 1-509): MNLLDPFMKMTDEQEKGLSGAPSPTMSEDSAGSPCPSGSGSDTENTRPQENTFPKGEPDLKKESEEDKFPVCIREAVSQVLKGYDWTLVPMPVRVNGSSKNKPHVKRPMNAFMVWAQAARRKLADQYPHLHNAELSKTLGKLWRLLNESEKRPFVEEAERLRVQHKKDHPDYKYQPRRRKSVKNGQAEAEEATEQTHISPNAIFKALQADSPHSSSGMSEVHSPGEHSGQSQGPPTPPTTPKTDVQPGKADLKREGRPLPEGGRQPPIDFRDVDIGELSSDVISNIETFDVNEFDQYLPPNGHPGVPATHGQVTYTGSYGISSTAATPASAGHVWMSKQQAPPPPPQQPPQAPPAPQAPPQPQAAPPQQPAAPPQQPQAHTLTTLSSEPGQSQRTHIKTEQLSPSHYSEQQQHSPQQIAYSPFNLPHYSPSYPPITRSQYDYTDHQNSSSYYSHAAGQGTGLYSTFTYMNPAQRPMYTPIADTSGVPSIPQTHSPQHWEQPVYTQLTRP
Briefly: Biotinylated enhancer pull down from nuclear extract, SOX9 detection. The data set is classed as binding. The settings on record: random DNA 599 as negative control.

T1 sequence (P48431 whole entry): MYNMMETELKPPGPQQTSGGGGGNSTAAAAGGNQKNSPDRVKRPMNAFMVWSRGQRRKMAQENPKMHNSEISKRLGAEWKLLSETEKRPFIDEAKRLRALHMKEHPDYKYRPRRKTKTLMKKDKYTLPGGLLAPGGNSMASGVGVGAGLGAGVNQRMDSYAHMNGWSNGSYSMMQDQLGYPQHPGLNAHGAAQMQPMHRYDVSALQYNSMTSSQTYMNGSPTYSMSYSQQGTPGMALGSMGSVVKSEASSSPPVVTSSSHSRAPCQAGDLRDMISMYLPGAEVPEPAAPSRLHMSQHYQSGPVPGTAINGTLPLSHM
Procedure for SOX9: All the buffers were prepared the day before, passed through a 22 μm filter (except the dialysis buffer) and left at 4° C. overnight. DTT and protease inhibitors were added just before use. […] The cell suspension was transferred to a glass Dounce homogenizer and dounced 40 times on ice. […] Dialysis buffer was changed (500 ml) and the dialysis was continued overnight at 4° C. The extract was collected in an 1.5 ml tube and spun at maximum speed for 15 min at 4° C. […] 100 μg aliquots were flash frozen in liquid nitrogen and stored at −80° C.
Enhancers were amplified with 5′ biotinylated primers (Table 5) using PrimeStar Max (Takara) according to the manufacturer's instructions.
Streptavidin Magnetic Bead (NEB, S1420S) were used according to the manufacturer's instructions. […]
Next, we aimed to confirm that indeed SOX2 and SOX9 are binding to the enhancer and the SOX dimer motif. […] To filter for transcription factors a list of all transcription factors was obtained from UniProt and overlapped with the detected proteins in both cell lines.

B1: ID1101: enhancer fragment, SEQ ID NO: 4 (nucleic acid)
DNA: GTGAGTGTGACTCACATGCTGGCATCAGAGCCCCTCTTAGAGCTTAGAACACTGGGCCTCTGTCAGGCAAAGAAAAGGAGTCCCTATGAATAGCCATCTCCACAAATAGCAGTTACTGTCACTTCTTAAAAGACACAAGCATGGCTGGAGACCGGCACTG
For B1, the “SOX2 enrichment (mass spectrometry)” value was found to be 4.4 fold with SOX2 (G7 nuclear extract) and 23 fold in the data set with SOX2 (GSC328 nuclear extract). For the same molecule, the SOX2 pull down result in the data set with SOX2 (GSC7 and GSC328) was “pulled down specifically”. The SOX9 interaction result with SOX9 is “selectively interacts”.

The values above are taken from US20260241035A1, “FUNCTIONAL NUCLEIC ACID MOLECULE AND METHOD” (THE UNIVERSITY COURT OF THE UNIVERSITY OF EDINBURGH, priority 2022, published 2026).
